The values below come from patent US20090029390A1 (KOREA INSTITUTE OF SCIENCE AND TECHNOLOGY, published 2009).

Ends that are not written are not given here. * marks the point of attachment. FITC = O=C1OC2(c3ccc(O)cc3Oc3cc(O)ccc32)c2ccc(NC(=S)*)cc21; Ahx = NCCCCCC(=O)O

Assay [1] has as its target T1, GST-CBP (truncated human CBP, amino acids 1-450) (human, UniProt Q92793 1-450).
T1 construct: Expressed in E. coli BL21 from pGEX-KG and eluted as a GST fusion; GST was not removed; not shown: glutathione S-transferase (GST) tag encoded by the pGEX-KG vector
In words: fluorescence polarization, labeled peptide titrated with GST-CBP 0-3000 nM. How it is done:
(§1) The binding affinity and features between the HIF-1α peptides and CBP or p300 proteins were analyzed by measuring the fluorescence polarization (FP) values that were changed by the formation of a protein-ligand complex through the interaction between the CBP or p300 proteins and the synthesized peptides that were manufactured by the method as described in above Example 1. The FP values were measured with a fluorescence spectrometer (Perkin-Elmer), which was set to have a slit width of 5 nm and a total integration time of 5 seconds. EBC Buffer (50 mM Tris and 120 mM NaCl; pH 8.0, 0.25% Nonidet P (NP)-40) was used for the binding reaction.
(§2) To compare interactions between the four peptides derived from different regions in HIF-1α C-TAD with CBP or p300, these fluorescein-labeled HIF-1α peptides were mixed with CBP proteins at varying concentrations from 0 to 3000 nM under the conditions of above Example 2-2, and then the FP (fluorescence polarization) values were measured (FIG. 2A).

Assay [2] concerns the target T2, GST-p300 (truncated p300, amino acids 1-221) (Homo sapiens (Human), UniProt Q09472 300-520).
T2 construct: Expressed in E. coli BL21 from pGEX-4T-1 and eluted as a GST fusion; GST was not removed; not shown: glutathione S-transferase (GST) tag encoded by the pGEX-4T-1 vector
In words: fluorescence polarization, labeled peptide titrated with GST-p300.

In assay [3] the target is T2, GST-p300 (truncated p300, amino acids …). In words: fluorescence polarization competition against F-HIF-1α(786-826) for GST-p300. (In fluorescence polarisation assays a small probe gives low polarisation when free and higher when bound to something large.)
For assay [4], the target named is T1, GST-CBP (truncated human CBP, amino …). In words: fluorescence polarization, 100 nM labeled peptide titrated with GST-CBP. The procedure: as §1, §2

T2 sequence (Q09472 300-520): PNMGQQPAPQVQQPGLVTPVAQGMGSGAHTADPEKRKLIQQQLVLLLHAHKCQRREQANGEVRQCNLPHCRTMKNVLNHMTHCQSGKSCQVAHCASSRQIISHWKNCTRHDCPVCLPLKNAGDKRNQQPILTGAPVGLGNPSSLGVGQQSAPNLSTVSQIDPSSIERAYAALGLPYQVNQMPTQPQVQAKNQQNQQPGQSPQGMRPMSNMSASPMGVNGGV
T1 sequence (Q92793 1-450): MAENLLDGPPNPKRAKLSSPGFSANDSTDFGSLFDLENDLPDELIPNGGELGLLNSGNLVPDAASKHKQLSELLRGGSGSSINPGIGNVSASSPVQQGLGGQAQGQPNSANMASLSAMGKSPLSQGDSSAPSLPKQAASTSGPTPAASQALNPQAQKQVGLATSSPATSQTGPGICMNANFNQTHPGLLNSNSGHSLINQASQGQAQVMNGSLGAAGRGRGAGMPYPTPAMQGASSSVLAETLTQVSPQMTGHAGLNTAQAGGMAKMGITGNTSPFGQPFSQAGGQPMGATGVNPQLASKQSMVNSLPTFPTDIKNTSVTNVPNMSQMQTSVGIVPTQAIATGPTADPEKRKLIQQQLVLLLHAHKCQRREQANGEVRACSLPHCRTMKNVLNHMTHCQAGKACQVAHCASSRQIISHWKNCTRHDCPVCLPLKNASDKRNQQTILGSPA

B1: F-HIF-1α (788-822, SEQ ID NO: 6) (peptide)
peptide: {FITC-Ahx}-DESGLPQLTSYDCEVNAPIQGSRNLLQGEELLRAL
notes: Synthetic fluorescein-labeled peptide
Consider B1, for which the binding result in assay [1] and in assay [2] was “binds” each time.

B2: F-HIF-1α (786-826, SEQ ID NO: 4) (peptide)
peptide: {FITC-Ahx}-SMDESGLPQLTSYDCEVNAPIQGSRNLLQGEELLRALDQVN
notes: Synthetic fluorescein-labeled peptide; also called untreated peptide
A word on the Kd: it is the free concentration of one partner at which half of the binding sites on the other are occupied at equilibrium, for simple one-to-one binding. High values mean a looser complex, low ones a tighter complex. As to B2, the values for the dissociation constant Kd in assay [1] and in assay [2] were 175 nM and 180 nM, respectively.

B3: F-HIF-1α (786-826)[C800A] (peptide)
peptide: {FITC-Ahx}-SMDESGLPQLTSYDAEVNAPIQGSRNLLQGEELLRALDQVN
notes: Position 800 counts on full-length HIF-1α
As for B3, in assay [2], the binding result was “binds”.

B4: T796D HIF-1α (786-826) peptide (peptide)
peptide: SMDESGLPQLDSYDCEVNAPIQGSRNLLQGEELLRALDQVN
notes: Unlabeled recombinant peptide with GST removed by thrombin; Position counts on full-length HIF-1α; also called T796D mutant peptide
For the molecule B4, the binding result in assay [3] was “binds”.

B5: N803A HIF-1α (786-826) peptide (peptide)
peptide: SMDESGLPQLTSYDCEVAAPIQGSRNLLQGEELLRALDQVN
notes: Unlabeled recombinant peptide with GST removed by thrombin; Position counts on full-length HIF-1α; also called N803A mutant peptide
For B5, the binding result in assay [3] is “binds”.

B6: F-HIF-1α (776-814, SEQ ID NO: 5) (peptide)
peptide: {FITC-Ahx}-SDLACRLLGQSMDESGLPQLTSYDCEVNAPIQGSRNLLQ
modifications: cysteine pairing not given here
notes: as for B1
Regarding B6, the binding result in assay [4] is listed as “no binding (tested: 3000 nM)”; in assay [2] it was “no binding”.

B7: F-HIF-1α (776-826, SEQ ID NO: 3) (peptide)
peptide: {FITC-Ahx}-SDLACRLLGQSMDESGLPQLTSYDCEVNAPIQGSRNLLQGEELLRALDQVN
modifications: cysteine pairing not given here
notes: Synthetic fluorescein-labeled peptide from the C-TAD of human HIF-1α
Regarding B7, the results for the dissociation constant (Kd) in assay [1] and in assay [2] were 196 nM and 157 nM, respectively.
